Target: mixture of three Der p 2 specific recombinant human IgE clones H10, H12, P4E (human) (UniProt P01854)
Experiment: RBL-SX38 IgE displacement, FACS

Sequence of mixture of three Der p 2 specific recombinant human IgE clones H10, H12, P4E (human) (P01854 other isoform, or with tags, fused parts or gaps): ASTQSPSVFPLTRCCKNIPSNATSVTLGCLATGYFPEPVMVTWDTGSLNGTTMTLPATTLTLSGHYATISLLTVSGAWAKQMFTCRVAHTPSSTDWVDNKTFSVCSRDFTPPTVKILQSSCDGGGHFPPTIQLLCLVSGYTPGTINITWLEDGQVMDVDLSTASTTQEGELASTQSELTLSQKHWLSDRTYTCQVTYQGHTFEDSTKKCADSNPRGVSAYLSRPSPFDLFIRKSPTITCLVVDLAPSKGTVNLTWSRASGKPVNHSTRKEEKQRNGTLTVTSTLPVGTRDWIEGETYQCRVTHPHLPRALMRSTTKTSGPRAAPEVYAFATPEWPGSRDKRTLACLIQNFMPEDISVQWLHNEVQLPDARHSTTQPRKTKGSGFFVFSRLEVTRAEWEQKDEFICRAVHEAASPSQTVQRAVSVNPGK

| Binder | EC50 [nM] | Max effect/effect 1 µM [%] |
| --- | --- | --- |
| CIgG4E4A1(G4S)1 (Fc fusion) chain 1: GPPCPPCPAPEFLGGPSVFLFPPKPKDTLMISRTPEVTCVVVDVSQEDPEVQFNWYVDGVEVHNAKTKPREEQFNSTYRVVSVLTVLHQDWLNGKEYKCKVSNKGLPSSIEKTISKAKGQPREPQVYTLPPCQEEMTKNQVSLWCLVKGFYPSDIAVEWESNGQPENNYKTTPPVLDSDGSFFLYSRLTVDKSRWQEGNVFSCSVMHEALHNHYTQKSLSLSLGKGGGGSDVQLQESGGGLVQPGGSLRLSCAASGFRFSNYAMRWYRQAPGKEREFVARISSTGFITRYTASVRDRFTISRDNDKNMMYLQLNKLTPQDTAHYYCNAESTDYWGQGTQVTVS chain 2: GPPCPPCPAPEFLGGPSVFLFPPKPKDTLMISRTPEVTCVVVDVSQEDPEVQFNWYVDGVEVHNAKTKPREEQFNSTYRVVSVLTVLHQDWLNGKEYKCKVSNKGLPSSIEKTISKAKGQPREPQVCTLPPSQEEMTKNQVSLSCAVKGFYPSDIAVEWESNGQPENNYKTTPPVLDSDGSFFLVSRLTVDKSRWQEGNVFSCSVMHEALHNHYTQKSLSLSLGKGGGGSEVQLLESGGGLVQPGGSLRLSCAASGFTFGNYDMAWVRQAPGKRPEWVSSIDTGGDITHYADSVKGRFTISRDNAKNTLYLQMNSLRPEDTAVYWCATDEEYALGPNEFDYYGQGTLVTVSS | 242 | 87 |
| CIgG4E4A1(RS) (Fc fusion) chain 1: GPPCPPCPAPEFLGGPSVFLFPPKPKDTLMISRTPEVTCVVVDVSQEDPEVQFNWYVDGVEVHNAKTKPREEQFNSTYRVVSVLTVLHQDWLNGKEYKCKVSNKGLPSSIEKTISKAKGQPREPQVYTLPPCQEEMTKNQVSLWCLVKGFYPSDIAVEWESNGQPENNYKTTPPVLDSDGSFFLYSRLTVDKSRWQEGNVFSCSVMHEALHNHYTQKSLSLSLGKRSDVQLQESGGGLVQPGGSLRLSCAASGFRFSNYAMRWYRQAPGKEREFVARISSTGFITRYTASVRDRFTISRDNDKNMMYLQLNKLTPQDTAHYYCNAESTDYWGQGTQVTVS chain 2: GPPCPPCPAPEFLGGPSVFLFPPKPKDTLMISRTPEVTCVVVDVSQEDPEVQFNWYVDGVEVHNAKTKPREEQFNSTYRVVSVLTVLHQDWLNGKEYKCKVSNKGLPSSIEKTISKAKGQPREPQVCTLPPSQEEMTKNQVSLSCAVKGFYPSDIAVEWESNGQPENNYKTTPPVLDSDGSFFLVSRLTVDKSRWQEGNVFSCSVMHEALHNHYTQKSLSLSLGKRSEVQLLESGGGLVQPGGSLRLSCAASGFTFGNYDMAWVRQAPGKRPEWVSSIDTGGDITHYADSVKGRFTISRDNAKNTLYLQMNSLRPEDTAVYWCATDEEYALGPNEFDYYGQGTLVTVSS | – | 0 |
| CIgG4E4A1(G4S)2 (Fc fusion) chain 1: GPPCPPCPAPEFLGGPSVFLFPPKPKDTLMISRTPEVTCVVVDVSQEDPEVQFNWYVDGVEVHNAKTKPREEQFNSTYRVVSVLTVLHQDWLNGKEYKCKVSNKGLPSSIEKTISKAKGQPREPQVYTLPPCQEEMTKNQVSLWCLVKGFYPSDIAVEWESNGQPENNYKTTPPVLDSDGSFFLYSRLTVDKSRWQEGNVFSCSVMHEALHNHYTQKSLSLSLGKGGGGSGGGGSDVQLQESGGGLVQPGGSLRLSCAASGFRFSNYAMRWYRQAPGKEREFVARISSTGFITRYTASVRDRFTISRDNDKNMMYLQLNKLTPQDTAHYYCNAESTDYWGQGTQVTVS chain 2: GPPCPPCPAPEFLGGPSVFLFPPKPKDTLMISRTPEVTCVVVDVSQEDPEVQFNWYVDGVEVHNAKTKPREEQFNSTYRVVSVLTVLHQDWLNGKEYKCKVSNKGLPSSIEKTISKAKGQPREPQVCTLPPSQEEMTKNQVSLSCAVKGFYPSDIAVEWESNGQPENNYKTTPPVLDSDGSFFLVSRLTVDKSRWQEGNVFSCSVMHEALHNHYTQKSLSLSLGKGGGGSGGGGSEVQLLESGGGLVQPGGSLRLSCAASGFTFGNYDMAWVRQAPGKRPEWVSSIDTGGDITHYADSVKGRFTISRDNAKNTLYLQMNSLRPEDTAVYWCATDEEYALGPNEFDYYGQGTLVTVSS | 107 | 94 |
| CIgG4E4A1(G4S)3 (Fc fusion) chain 1: GPPCPPCPAPEFLGGPSVFLFPPKPKDTLMISRTPEVTCVVVDVSQEDPEVQFNWYVDGVEVHNAKTKPREEQFNSTYRVVSVLTVLHQDWLNGKEYKCKVSNKGLPSSIEKTISKAKGQPREPQVYTLPPCQEEMTKNQVSLWCLVKGFYPSDIAVEWESNGQPENNYKTTPPVLDSDGSFFLYSRLTVDKSRWQEGNVFSCSVMHEALHNHYTQKSLSLSLGKGGGGSGGGGSGGGGSDVQLQESGGGLVQPGGSLRLSCAASGFRFSNYAMRWYRQAPGKEREFVARISSTGFITRYTASVRDRFTISRDNDKNMMYLQLNKLTPQDTAHYYCNAESTDYWGQGTQVTVS chain 2: GPPCPPCPAPEFLGGPSVFLFPPKPKDTLMISRTPEVTCVVVDVSQEDPEVQFNWYVDGVEVHNAKTKPREEQFNSTYRVVSVLTVLHQDWLNGKEYKCKVSNKGLPSSIEKTISKAKGQPREPQVCTLPPSQEEMTKNQVSLSCAVKGFYPSDIAVEWESNGQPENNYKTTPPVLDSDGSFFLVSRLTVDKSRWQEGNVFSCSVMHEALHNHYTQKSLSLSLGKGGGGSGGGGSGGGGSEVQLLESGGGLVQPGGSLRLSCAASGFTFGNYDMAWVRQAPGKRPEWVSSIDTGGDITHYADSVKGRFTISRDNAKNTLYLQMNSLRPEDTAVYWCATDEEYALGPNEFDYYGQGTLVTVSS | 31.6 | 98 |

The remaining lines, values ahead:

| EC50 [nM] | Max effect/effect 1 µM [%] | Binder |
| --- | --- | --- |
| 16.4 | 98 | NIgG4E4A1(G4S)2 (Fc fusion) chain 1: DVQLQESGGGLVQPGGSLRLSCAASGFRFSNYAMRWYRQAPGKEREFVARISSTGFITRYTASVRDRFTISRDNDKNMMYLQLNKLTPQDTAHYYCNAESTDYWGQGTQVTVSGGGGSGGGGSGPPCPPCPAPEFLGGPSVFLFPPKPKDTLMISRTPEVTCVVVDVSQEDPEVQFNWYVDGVEVHNAKTKPREEQFNSTYRVVSVLTVLHQDWLNGKEYKCKVSNKGLPSSIEKTISKAKGQPREPQVYTLPPCQEEMTKNQVSLWCLVKGFYPSDIAVEWESNGQPENNYKTTPPVLDSDGSFFLYSRLTVDKSRWQEGNVFSCSVMHEALHNHYTQKSLSLSLGK chain 2: EVQLLESGGGLVQPGGSLRLSCAASGFTFGNYDMAWVRQAPGKRPEWVSSIDTGGDITHYADSVKGRFTISRDNAKNTLYLQMNSLRPEDTAVYWCATDEEYALGPNEFDYYGQGTLVTVSSGGGGSGGGGSGPPCPPCPAPEFLGGPSVFLFPPKPKDTLMISRTPEVTCVVVDVSQEDPEVQFNWYVDGVEVHNAKTKPREEQFNSTYRVVSVLTVLHQDWLNGKEYKCKVSNKGLPSSIEKTISKAKGQPREPQVCTLPPSQEEMTKNQVSLSCAVKGFYPSDIAVEWESNGQPENNYKTTPPVLDSDGSFFLVSRLTVDKSRWQEGNVFSCSVMHEALHNHYTQKSLSLSLGK |
| 3.5 | 88 | NIgG4F1A1(RS) (Fc fusion) chain 1: DVQLQESGGGLVQAGGSLKLSCAASGGSLSRYDMGWFRQAPGKEREFVARISWSGTTKYYADAVKGRFAISRDNAKNTVYLQMNSLKPEDTAVYYCAAAFYGNRGYYDVNAYTSSGQGTQVTVSRSGPPCPPCPAPEFLGGPSVFLFPPKPKDTLMISRTPEVTCVVVDVSQEDPEVQFNWYVDGVEVHNAKTKPREEQFNSTYRVVSVLTVLHQDWLNGKEYKCKVSNKGLPSSIEKTISKAKGQPREPQVYTLPPCQEEMTKNQVSLWCLVKGFYPSDIAVEWESNGQPENNYKTTPPVLDSDGSFFLYSRLTVDKSRWQEGNVFSCSVMHEALHNHYTQKSLSLSLGK chain 2: EVQLLESGGGLVQPGGSLRLSCAASGFTFGNYDMAWVRQAPGKRPEWVSSIDTGGDITHYADSVKGRFTISRDNAKNTLYLQMNSLRPEDTAVYWCATDEEYALGPNEFDYYGQGTLVTVSSRSGPPCPPCPAPEFLGGPSVFLFPPKPKDTLMISRTPEVTCVVVDVSQEDPEVQFNWYVDGVEVHNAKTKPREEQFNSTYRVVSVLTVLHQDWLNGKEYKCKVSNKGLPSSIEKTISKAKGQPREPQVCTLPPSQEEMTKNQVSLSCAVKGFYPSDIAVEWESNGQPENNYKTTPPVLDSDGSFFLVSRLTVDKSRWQEGNVFSCSVMHEALHNHYTQKSLSLSLGK |
| 2.6 | 92 | NIgG4F1A1(G4S)1 (Fc fusion) chain 1: DVQLQESGGGLVQAGGSLKLSCAASGGSLSRYDMGWFRQAPGKEREFVARISWSGTTKYYADAVKGRFAISRDNAKNTVYLQMNSLKPEDTAVYYCAAAFYGNRGYYDVNAYTSSGQGTQVTVSGGGGSGPPCPPCPAPEFLGGPSVFLFPPKPKDTLMISRTPEVTCVVVDVSQEDPEVQFNWYVDGVEVHNAKTKPREEQFNSTYRVVSVLTVLHQDWLNGKEYKCKVSNKGLPSSIEKTISKAKGQPREPQVYTLPPCQEEMTKNQVSLWCLVKGFYPSDIAVEWESNGQPENNYKTTPPVLDSDGSFFLYSRLTVDKSRWQEGNVFSCSVMHEALHNHYTQKSLSLSLGK chain 2: EVQLLESGGGLVQPGGSLRLSCAASGFTFGNYDMAWVRQAPGKRPEWVSSIDTGGDITHYADSVKGRFTISRDNAKNTLYLQMNSLRPEDTAVYWCATDEEYALGPNEFDYYGQGTLVTVSSGGGGSGPPCPPCPAPEFLGGPSVFLFPPKPKDTLMISRTPEVTCVVVDVSQEDPEVQFNWYVDGVEVHNAKTKPREEQFNSTYRVVSVLTVLHQDWLNGKEYKCKVSNKGLPSSIEKTISKAKGQPREPQVCTLPPSQEEMTKNQVSLSCAVKGFYPSDIAVEWESNGQPENNYKTTPPVLDSDGSFFLVSRLTVDKSRWQEGNVFSCSVMHEALHNHYTQKSLSLSLGK |
| 36 | 92 | NIgG4E4A1(G4S)3 (Fc fusion) chain 1: DVQLQESGGGLVQPGGSLRLSCAASGFRFSNYAMRWYRQAPGKEREFVARISSTGFITRYTASVRDRFTISRDNDKNMMYLQLNKLTPQDTAHYYCNAESTDYWGQGTQVTVSGGGGSGGGGSGGGGSGPPCPPCPAPEFLGGPSVFLFPPKPKDTLMISRTPEVTCVVVDVSQEDPEVQFNWYVDGVEVHNAKTKPREEQFNSTYRVVSVLTVLHQDWLNGKEYKCKVSNKGLPSSIEKTISKAKGQPREPQVYTLPPCQEEMTKNQVSLWCLVKGFYPSDIAVEWESNGQPENNYKTTPPVLDSDGSFFLYSRLTVDKSRWQEGNVFSCSVMHEALHNHYTQKSLSLSLGK chain 2: EVQLLESGGGLVQPGGSLRLSCAASGFTFGNYDMAWVRQAPGKRPEWVSSIDTGGDITHYADSVKGRFTISRDNAKNTLYLQMNSLRPEDTAVYWCATDEEYALGPNEFDYYGQGTLVTVSSGGGGSGGGGSGGGGSGPPCPPCPAPEFLGGPSVFLFPPKPKDTLMISRTPEVTCVVVDVSQEDPEVQFNWYVDGVEVHNAKTKPREEQFNSTYRVVSVLTVLHQDWLNGKEYKCKVSNKGLPSSIEKTISKAKGQPREPQVCTLPPSQEEMTKNQVSLSCAVKGFYPSDIAVEWESNGQPENNYKTTPPVLDSDGSFFLVSRLTVDKSRWQEGNVFSCSVMHEALHNHYTQKSLSLSLGK |

— patent US20250171562A1
